Experiment [1] addresses CCR9 (species and isoform not stated) (UniProt P51686). As to the kind of experiment: LigandTracer on CCR9-expressing CHO K1 cells, DyLight 650 labelled IgG, bivalent (1:2) fit, about 22 C.
The target of experiment [2] is human CCR9 (isoform not given) (human) (UniProt P51686). The experiment can be described thus: cell-based or functional assay.
The target in experiment [3] is T1, human CCR9B (human, UniProt P51686 13-369).
T1 construct: Overexpressed on HEK cells; also called Hu B HEK; hCCR9 isoform B
T1 sequence: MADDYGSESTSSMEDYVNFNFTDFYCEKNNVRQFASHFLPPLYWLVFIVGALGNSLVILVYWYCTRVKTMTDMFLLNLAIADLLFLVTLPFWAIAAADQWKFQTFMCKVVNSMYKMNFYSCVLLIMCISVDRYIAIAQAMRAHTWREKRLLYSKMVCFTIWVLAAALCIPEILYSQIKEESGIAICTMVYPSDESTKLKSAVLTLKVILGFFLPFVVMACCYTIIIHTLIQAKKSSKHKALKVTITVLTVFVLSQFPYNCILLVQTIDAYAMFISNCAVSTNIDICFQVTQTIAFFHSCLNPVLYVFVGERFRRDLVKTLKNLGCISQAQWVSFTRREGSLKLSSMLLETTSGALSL
The experiment can be described thus: binding to HEK cells expressing human CCR9B (huCCR9B), FL1 counts against Log M, methods of Example 4.

Experiment [4] deals with CCR9 (species and isoform not stated) (UniProt P51686).
The target of experiment [5] is human CCR9 (isoform not given) (human), P51686.
The next experiment addresses T2, rat CCR9 (rat, UniProt Q8CH33 1-369).
T2 construct: Overexpressed on HEK cells; also called Rat HEK
T2 sequence: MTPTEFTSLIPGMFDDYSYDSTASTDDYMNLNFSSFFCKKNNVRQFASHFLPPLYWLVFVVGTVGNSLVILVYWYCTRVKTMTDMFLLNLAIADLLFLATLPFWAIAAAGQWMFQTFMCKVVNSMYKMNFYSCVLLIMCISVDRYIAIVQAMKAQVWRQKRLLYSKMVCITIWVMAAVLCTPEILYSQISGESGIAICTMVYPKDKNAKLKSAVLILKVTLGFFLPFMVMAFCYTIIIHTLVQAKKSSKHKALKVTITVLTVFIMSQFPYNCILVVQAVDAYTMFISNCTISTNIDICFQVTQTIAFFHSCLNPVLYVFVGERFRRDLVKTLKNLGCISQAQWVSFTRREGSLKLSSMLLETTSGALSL
The experiment can be described thus: cell binding by the methods of Example 4.

The target in another experiment is T3, mouse CCR9 (mouse, UniProt Q9WUT7 1-369).
T3 construct: whole, on cells; Overexpressed on HEK cells; also called mCCR9; Mouse HEK
T3 sequence (looked up): T2 sequence with T2M, F6L, Y17F, V60I, V64L, I189V, I197T, C272S, T283A
As to the kind of experiment: cell binding by the methods of Example 4.

For experiment [6], the target named is human CCR9 (isoform not given) (human), P51686. The experiment can be described thus: cell-based or functional assay.
Experiment [7] concerns the target T1, human CCR9B. As to the kind of experiment: binding to cells expressing human CCR9B, FL1 counts against Log M, methods of Example 4.
The target of the next experiment is T4, human CCR9A (human, UniProt P51686 1-369).
T4 construct: Overexpressed on HEK cells; also called Hu A HEK; hCCR9 isoform A
T4 sequence: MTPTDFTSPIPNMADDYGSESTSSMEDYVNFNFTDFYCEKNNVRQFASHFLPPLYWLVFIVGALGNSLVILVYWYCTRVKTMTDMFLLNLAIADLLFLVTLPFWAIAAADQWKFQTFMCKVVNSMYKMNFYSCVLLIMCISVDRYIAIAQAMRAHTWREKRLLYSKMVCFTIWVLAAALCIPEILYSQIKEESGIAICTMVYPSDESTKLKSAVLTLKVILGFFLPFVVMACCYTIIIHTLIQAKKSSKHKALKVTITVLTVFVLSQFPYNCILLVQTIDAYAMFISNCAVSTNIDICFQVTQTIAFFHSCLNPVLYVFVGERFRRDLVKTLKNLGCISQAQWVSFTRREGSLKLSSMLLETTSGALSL
As to the kind of experiment: binding to cells expressing human CCR9A, FL1 counts against Log M, methods of Example 4.

Experiment [8] addresses CCR9 (species and isoform not stated) (UniProt P51686). The experiment can be described thus: cell-based or functional assay.
Another experiment deals with T5, cynomolgus CCR9 (cynomolgus, UniProt Q0H741 1-369).
T5 sequence: T4 sequence with D5E, I10V, I197V, V228M, N288S
The experiment can be described thus: cell-based or functional assay.

As a reminder, the koff is a measure of how fast the partners let go of each other. A lower koff goes with slow dissociation.

Residue numbers refer to the chain shown, from its start.

B1: Humanised AB1020243 (AB1020243-fgl) (antibody, V domains shown)
VH: QVQLVQSGAEVKKPGASVKVSCKASGYTFTSYWMHWVRQAPGQGLEWIGVIYPGNSDTRYNQKFKGRVTITRDTSASTAYMELSSLRSEDTAVYYCTRDYYSNYVYYYAMDYWGQGTTVTVSS
VL: DIVMTQTPLSLPVTPGEPASISCRSSQSLVHSNGNTYLHWYLQKPGQSPQLLIYKVSNRFSGVPDRFSGSGSGTDFTLKISRVEAEDVGVYYCSQSTHVPWTFGQGTKLEIK
notes: For LigandTracer it was labelled with DyLight 650 on an engineered cysteine in CH2; also called humanised AB1020243 afuc
The molecule B1 registered an off-rate (koff) in experiment [1] of 4.3e-05 s⁻¹. The molecule further returned a Potency, NK cell activation assay (NK-92 MI CD16a NFAT luciferase, in vitro ADCC bioassay) in experiment [2] of 0.8 nM. For the same molecule, the binding result with human CCR9B [3] is “binds”. The same molecule returned an EC50 of a CPS dose-response curve (potency; luminescence counts per second as in the NK cell activation assay of Example 4); target cells not named on the sheet (M (axis Log M; no unit in the table)) in experiment [4] of 7.3e-09.

B2: AB243LO0331 (antibody, V domains shown)
VH: B1 VH
VL: B1 VL with G34T
notes: CDR-optimised humanised antibody, a-fuc huIgG1 (afucosylated in all experiments); The constant regions are not expressly tied to it
In experiment [5], B2 came in with an IC50 (read off the curve) of 0.7 nM. In addition, the binding result with rat CCR9 and with mouse CCR9 was “no binding” in each case.

B3: AB243LO0326 (antibody, V domains shown)
VH: B1 VH
VL: B1 VL with S32P, G34R
notes: CDR-optimised humanised antibody, a-fuc huIgG1 (afucosylated in all experiments); For LigandTracer it was labelled with DyLight 650 on an engineered cysteine in CH2; also called CDR-optimised AB1020243
B3: the EC50, killing of PBMC in [6] came to 0.004 nM. Besides, the EC50, killing of human CD4+CCR9+ PBMC in experiment [6] fell in the range of 0.004 to 0.005 nM. Moreover, the IC50 (read off the curve) in experiment [5] amounted to 0.7 nM. This molecule came in with a Kd in experiment [1] of 0.09 nM. Besides, the binding result with human CCR9B [7] was “binds”; with human CCR9A it was “binds”; with rat CCR9, “no binding”; with mouse CCR9 it was “no binding”. The CCL25 induced CCR9 internalisation (FACS) in experiment [8] came out at 2 nM. In addition, the “EC50, killing of cynomolgus CD4+CCR9+ PBMC” value in the experiment with cynomolgus CCR9 was 0.03 nM.

The values above are taken from US20240174758A1 (AstraZeneca / MedImmune, published 2024).
